According to patent US20120264685A1 (priority 2009, published 2012):
Where no end group is shown, it is not given here. [ ]: non-standard residue; d: D form. Bip(2'-Et-4'-OMe) = CCc1cc(OC)ccc1-c1ccc(C[C@H](N)C(=O)O)cc1; αMePhe(2,6-F2) = C[C@](N)(Cc1c(F)cccc1F)C(=O)O; αMePhe(2-F) = C[C@](N)(Cc1ccccc1F)C(=O)O; αMeBip(OMe) = alpha-methylated Bip(OMe); hhPhe = N[C@@H](CCCc1ccccc1)C(=O)O; αMeD = C[C@](N)(CC(=O)O)C(=O)O; αMeP = C[C@@]1(C(=O)O)CCCN1; αMeAPPA = not defined here; αMeS = C[C@](N)(CO)C(=O)O; Aib = CC(C)(N)C(=O)O

Target: human glucagon receptor (human, UniProt P47871 26-477)
Assay: cell-based or functional assay

Chain of human glucagon receptor (P47871 26-477): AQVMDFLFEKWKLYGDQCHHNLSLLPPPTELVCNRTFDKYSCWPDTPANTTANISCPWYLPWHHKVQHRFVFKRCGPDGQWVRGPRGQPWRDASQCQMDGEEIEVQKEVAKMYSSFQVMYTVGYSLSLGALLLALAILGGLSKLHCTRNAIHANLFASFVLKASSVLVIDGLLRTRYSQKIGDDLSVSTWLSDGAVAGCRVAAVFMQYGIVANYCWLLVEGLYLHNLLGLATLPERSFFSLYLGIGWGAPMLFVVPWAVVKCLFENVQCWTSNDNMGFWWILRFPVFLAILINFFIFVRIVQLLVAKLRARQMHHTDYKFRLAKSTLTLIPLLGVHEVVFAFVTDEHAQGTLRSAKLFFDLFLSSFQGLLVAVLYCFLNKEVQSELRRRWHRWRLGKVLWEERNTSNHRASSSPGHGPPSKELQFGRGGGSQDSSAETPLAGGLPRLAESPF

Binder: VVH[Aib]EGT[αMePhe(2,6-F2)]TSD[αMeBip(OMe)][hhPhe]-NH2 [Seq. ID. No. 227]
- cAMP production (pmol/ml/µg prt) with saturated glucagon peptide, at 1 nM: 19 pmol/ml/µg prt
- cAMP production (pmol/ml/µg prt) with saturated glucagon peptide, at 10 nM: 17 pmol/ml/µg prt
- cAMP production (pmol/ml/µg prt) with saturated glucagon peptide, at 100 nM: 15 pmol/ml/µg prt
- cAMP production (pmol/ml/µg prt) with saturated glucagon peptide, at 1 µM: 14 pmol/ml/µg prt
- cAMP production (pmol/ml/µg prt) with saturated glucagon peptide, at 10 µM: 12 pmol/ml/µg prt

Binder: VH[αMeP]EGT[αMePhe(2,6-F2)]TS[αMeD][αMeBip(OMe)][hhPhe] (not fully specified (C-terminus)) [Seq. ID. No. 80]
- cAMP production (pmol/ml/µg prt) with saturated glucagon peptide, at 1 nM: 0 pmol/ml/µg prt
- cAMP production (pmol/ml/µg prt) with saturated glucagon peptide, at 10 nM: 0 pmol/ml/µg prt
- cAMP production (pmol/ml/µg prt) with saturated glucagon peptide, at 100 nM: 0 pmol/ml/µg prt
- cAMP production (pmol/ml/µg prt) with saturated glucagon peptide, at 1 µM: 0 pmol/ml/µg prt
- cAMP production (pmol/ml/µg prt) with saturated glucagon peptide, at 10 µM: 0 pmol/ml/µg prt

Binder: VH[Aib]QGT[αMePhe(2-F)]T[αMeS]D[αMeBip(OMe)][αMeAPPA] (not fully specified (C-terminus); reading uncertain) [Seq. ID. No. 167]
- cAMP production (pmol/ml/µg prt) with saturated glucagon peptide, at 1 nM: 9 pmol/ml/µg prt
- cAMP production (pmol/ml/µg prt) with saturated glucagon peptide, at 10 nM: 6 pmol/ml/µg prt
- cAMP production (pmol/ml/µg prt) with saturated glucagon peptide, at 100 nM: 5 pmol/ml/µg prt
- cAMP production (pmol/ml/µg prt) with saturated glucagon peptide, at 1 µM: 3 pmol/ml/µg prt
- cAMP production (pmol/ml/µg prt) with saturated glucagon peptide, at 10 µM: 0 pmol/ml/µg prt

Binder: VH[αMeP]QGT[αMePhe(2,6-F2)]TS[αMeD][αMeBip(OMe)][αMeAPPA] (not fully specified (C-terminus); reading uncertain) [Seq. ID. No. 200]
- cAMP production (pmol/ml/µg prt) with saturated glucagon peptide, at 1 nM: 10 pmol/ml/µg prt
- cAMP production (pmol/ml/µg prt) with saturated glucagon peptide, at 10 nM: 8 pmol/ml/µg prt
- cAMP production (pmol/ml/µg prt) with saturated glucagon peptide, at 100 nM: 6 pmol/ml/µg prt
- cAMP production (pmol/ml/µg prt) with saturated glucagon peptide, at 1 µM: 4 pmol/ml/µg prt
- cAMP production (pmol/ml/µg prt) with saturated glucagon peptide, at 10 µM: 1 pmol/ml/µg prt

B1: Seq. ID. No. 211 (peptide)
peptide: VVH[Aib]EGTFTSD[αMeBip(OMe)][hhPhe]
modifications: not fully specified (C-terminus); printed as VVH-Aib-EGTFTSD-(αMe-Bip(OMe))-(APPA)
- cAMP production (pmol/ml/µg prt) with saturated glucagon peptide, at 1 nM: 6 pmol/ml/µg prt
- cAMP production (pmol/ml/µg prt) with saturated glucagon peptide, at 10 nM: 5 pmol/ml/µg prt
- cAMP production (pmol/ml/µg prt) with saturated glucagon peptide, at 100 nM: 2 pmol/ml/µg prt
- cAMP production (pmol/ml/µg prt) with saturated glucagon peptide, at 1 µM: 0 pmol/ml/µg prt
- cAMP production (pmol/ml/µg prt) with saturated glucagon peptide, at 10 µM: 0 pmol/ml/µg prt

B2: Seq. ID. No. 208 (peptide)
peptide: VVH[αMeP]QGTFTSD[αMeBip(OMe)][hhPhe]
modifications: not fully specified (C-terminus); printed as VVH-(αMe-Pro)-QGTFTSD-(αMe-Bip(OMe))-(APPA)
- cAMP production (pmol/ml/µg prt) with saturated glucagon peptide, at 1 nM: 4 pmol/ml/µg prt
- cAMP production (pmol/ml/µg prt) with saturated glucagon peptide, at 10 nM: 2 pmol/ml/µg prt
- cAMP production (pmol/ml/µg prt) with saturated glucagon peptide, at 100 nM: 0 pmol/ml/µg prt
- cAMP production (pmol/ml/µg prt) with saturated glucagon peptide, at 1 µM: 0 pmol/ml/µg prt
- cAMP production (pmol/ml/µg prt) with saturated glucagon peptide, at 10 µM: 0 pmol/ml/µg prt

B3: Seq. ID. No. 169 (peptide)
peptide: VHSEGT[αMePhe(2-F)]T[αMeS]D[αMeBip(OMe)][αMeAPPA]
modifications: not fully specified (C-terminus); printed as VHSEGT-(αMe-2FPhe)-T-(αMe-Ser)-D-(αMe-Bip(OMe))-(αMe-APPA); reading uncertain
- cAMP production (pmol/ml/µg prt) with saturated glucagon peptide, at 1 nM: 5 pmol/ml/µg prt
- cAMP production (pmol/ml/µg prt) with saturated glucagon peptide, at 10 nM: 2 pmol/ml/µg prt
- cAMP production (pmol/ml/µg prt) with saturated glucagon peptide, at 100 nM: 0 pmol/ml/µg prt
- cAMP production (pmol/ml/µg prt) with saturated glucagon peptide, at 1 µM: 0 pmol/ml/µg prt
- cAMP production (pmol/ml/µg prt) with saturated glucagon peptide, at 10 µM: 0 pmol/ml/µg prt

B4: Seq. ID. No. 113 (peptide)
peptide: VH[Aib]EGTFT[αMeS][αMeD][Bip(2'-Et-4'-OMe)][αMeAPPA]
modifications: not fully specified (C-terminus); printed as VH-Aib-EGTFT-(αMe-Ser)-(αMe-Asp)-Bip(OMe)-(αMe-APPA); reading uncertain
- cAMP production (pmol/ml/µg prt) with saturated glucagon peptide, at 1 nM: 4 pmol/ml/µg prt
- cAMP production (pmol/ml/µg prt) with saturated glucagon peptide, at 10 nM: 2 pmol/ml/µg prt
- cAMP production (pmol/ml/µg prt) with saturated glucagon peptide, at 100 nM: 0 pmol/ml/µg prt
- cAMP production (pmol/ml/µg prt) with saturated glucagon peptide, at 1 µM: 0 pmol/ml/µg prt
- cAMP production (pmol/ml/µg prt) with saturated glucagon peptide, at 10 µM: 0 pmol/ml/µg prt

Binder: VVHSEGT[αMePhe(2-F)]TSD[αMeBip(OMe)][hhPhe]-NH2 [Seq. ID. No. 217]
- cAMP production (pmol/ml/µg prt) with saturated glucagon peptide, at 1 nM: 5 pmol/ml/µg prt
- cAMP production (pmol/ml/µg prt) with saturated glucagon peptide, at 10 nM: 2 pmol/ml/µg prt
- cAMP production (pmol/ml/µg prt) with saturated glucagon peptide, at 100 nM: 0 pmol/ml/µg prt
- cAMP production (pmol/ml/µg prt) with saturated glucagon peptide, at 1 µM: 0 pmol/ml/µg prt
- cAMP production (pmol/ml/µg prt) with saturated glucagon peptide, at 10 µM: 0 pmol/ml/µg prt

Binder: VH[αMeP]EGT[αMePhe(2,6-F2)]TS[αMeD][αMeBip(OMe)][αMeAPPA] (not fully specified (C-terminus); reading uncertain) [Seq. ID. No. 204]
- cAMP production (pmol/ml/µg prt) with saturated glucagon peptide, at 1 nM: 9 pmol/ml/µg prt
- cAMP production (pmol/ml/µg prt) with saturated glucagon peptide, at 10 nM: 6 pmol/ml/µg prt
- cAMP production (pmol/ml/µg prt) with saturated glucagon peptide, at 100 nM: 5 pmol/ml/µg prt
- cAMP production (pmol/ml/µg prt) with saturated glucagon peptide, at 1 µM: 3 pmol/ml/µg prt
- cAMP production (pmol/ml/µg prt) with saturated glucagon peptide, at 10 µM: 0 pmol/ml/µg prt

Binder: VVHSEGTFTSD[αMeBip(OMe)][hhPhe] (not fully specified (C-terminus); printed as VVHSEGTFTSD-(αMe-Bip(OMe))-(APPA)) [Seq. ID. No. 209]
- cAMP production (pmol/ml/µg prt) with saturated glucagon peptide, at 1 nM: 0 pmol/ml/µg prt
- cAMP production (pmol/ml/µg prt) with saturated glucagon peptide, at 10 nM: 0 pmol/ml/µg prt
- cAMP production (pmol/ml/µg prt) with saturated glucagon peptide, at 100 nM: 0 pmol/ml/µg prt
- cAMP production (pmol/ml/µg prt) with saturated glucagon peptide, at 1 µM: 0 pmol/ml/µg prt
- cAMP production (pmol/ml/µg prt) with saturated glucagon peptide, at 10 µM: 0 pmol/ml/µg prt

Binder: VH[Aib]QGT[αMePhe(2,6-F2)]TS[αMeD][αMeBip(OMe)][αMeAPPA] (not fully specified (C-terminus); reading uncertain) [Seq. ID. No. 199]
- cAMP production (pmol/ml/µg prt) with saturated glucagon peptide, at 1 nM: 14 pmol/ml/µg prt
- cAMP production (pmol/ml/µg prt) with saturated glucagon peptide, at 10 nM: 11 pmol/ml/µg prt
- cAMP production (pmol/ml/µg prt) with saturated glucagon peptide, at 100 nM: 7 pmol/ml/µg prt
- cAMP production (pmol/ml/µg prt) with saturated glucagon peptide, at 1 µM: 3 pmol/ml/µg prt
- cAMP production (pmol/ml/µg prt) with saturated glucagon peptide, at 10 µM: 0 pmol/ml/µg prt

B5: Seq. ID. No. 163 (peptide)
peptide: VH[Aib]EGTFT[αMeS]D[αMeBip(OMe)][αMeAPPA]
modifications: not fully specified (C-terminus); printed as VH-Aib-EGTFT-(αMe-Ser)-D-(αMe-Bip(OMe))-(αMe-APPA); reading uncertain
- cAMP production (pmol/ml/µg prt) with saturated glucagon peptide, at 1 nM: 15 pmol/ml/µg prt
- cAMP production (pmol/ml/µg prt) with saturated glucagon peptide, at 10 nM: 12 pmol/ml/µg prt
- cAMP production (pmol/ml/µg prt) with saturated glucagon peptide, at 100 nM: 8 pmol/ml/µg prt
- cAMP production (pmol/ml/µg prt) with saturated glucagon peptide, at 1 µM: 4 pmol/ml/µg prt
- cAMP production (pmol/ml/µg prt) with saturated glucagon peptide, at 10 µM: 2 pmol/ml/µg prt

B6: Seq. ID. No. 87 (peptide)
peptide: VHSEGTFTSD[Bip(2'-Et-4'-OMe)][αMeAPPA]
modifications: not fully specified (C-terminus); printed as VHSEGTFTSD-Bip(OMe)-(αMe-APPA); reading uncertain
- cAMP production (pmol/ml/µg prt) with saturated glucagon peptide, at 1 nM: 5 pmol/ml/µg prt
- cAMP production (pmol/ml/µg prt) with saturated glucagon peptide, at 10 nM: 3 pmol/ml/µg prt
- cAMP production (pmol/ml/µg prt) with saturated glucagon peptide, at 100 nM: 1 pmol/ml/µg prt
- cAMP production (pmol/ml/µg prt) with saturated glucagon peptide, at 1 µM: 0 pmol/ml/µg prt
- cAMP production (pmol/ml/µg prt) with saturated glucagon peptide, at 10 µM: 0 pmol/ml/µg prt

Binder: VVH[αMeP]QGT[αMePhe(2-F)]TSD[αMeBip(OMe)][hhPhe]-NH2 [Seq. ID. No. 216]
- cAMP production (pmol/ml/µg prt) with saturated glucagon peptide, at 1 nM: 0 pmol/ml/µg prt
- cAMP production (pmol/ml/µg prt) with saturated glucagon peptide, at 10 nM: 0 pmol/ml/µg prt
- cAMP production (pmol/ml/µg prt) with saturated glucagon peptide, at 100 nM: 0 pmol/ml/µg prt
- cAMP production (pmol/ml/µg prt) with saturated glucagon peptide, at 1 µM: 0 pmol/ml/µg prt
- cAMP production (pmol/ml/µg prt) with saturated glucagon peptide, at 10 µM: 0 pmol/ml/µg prt

Binder: VHAEGT[αMePhe(2-F)]TS[αMeD][αMeBip(OMe)][hhPhe]-NH2 [Seq. ID. No. 70]
- cAMP production (pmol/ml/µg prt) with saturated glucagon peptide, at 1 nM: 2 pmol/ml/µg prt
- cAMP production (pmol/ml/µg prt) with saturated glucagon peptide, at 10 nM: 0 pmol/ml/µg prt
- cAMP production (pmol/ml/µg prt) with saturated glucagon peptide, at 100 nM: 0 pmol/ml/µg prt
- cAMP production (pmol/ml/µg prt) with saturated glucagon peptide, at 1 µM: 0 pmol/ml/µg prt
- cAMP production (pmol/ml/µg prt) with saturated glucagon peptide, at 10 µM: 0 pmol/ml/µg prt

B7: Seq. ID. No. 189 (peptide)
peptide: VHSQGT[αMePhe(2-F)]TS[αMeD][αMeBip(OMe)][αMeAPPA]
modifications: not fully specified (C-terminus); printed as VHSQGT-(αMe-2FPhe)-TS-(αMe-Asp)-(αMe-Bip(OMe))-(αMe-APPA); reading uncertain
- cAMP production (pmol/ml/µg prt) with saturated glucagon peptide, at 1 nM: 4 pmol/ml/µg prt
- cAMP production (pmol/ml/µg prt) with saturated glucagon peptide, at 10 nM: 2 pmol/ml/µg prt
- cAMP production (pmol/ml/µg prt) with saturated glucagon peptide, at 100 nM: 0 pmol/ml/µg prt
- cAMP production (pmol/ml/µg prt) with saturated glucagon peptide, at 1 µM: 0 pmol/ml/µg prt
- cAMP production (pmol/ml/µg prt) with saturated glucagon peptide, at 10 µM: 0 pmol/ml/µg prt
